{"source": "patent US20220204626A1", "about": "(REMEGEN, published 2022)", "key": {"TGF-β1 [1]": {"target": "T1, TGF-β1 (UniProt P01137 279-390, limits assumed)", "T1 sequence (P01137 279-390 limits assumed)": "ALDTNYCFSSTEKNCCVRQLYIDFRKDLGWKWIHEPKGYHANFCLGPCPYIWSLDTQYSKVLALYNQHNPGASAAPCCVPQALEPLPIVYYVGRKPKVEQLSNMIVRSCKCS", "assay": "ELISA, TGF-β1 coated at 2 µg/ml, detection with goat anti-human Fc-HRP", "text": "(§1) (11) Reading: The absorbance values were read at 450/655 nm respectively using the MD microplate reader. The concentration of the sample to be tested was used as the abscissa and the absorbance value as the ordinate to plot making a 4-PL curve, and the software automatically gave the EC50 value. (see table 7)."}, "TGF-β1 [2]": {"target": "T1, TGF-β1", "assay": "ELISA on coated TGF-β1, ratio of EC50 values against TGF-β-R-His", "text": "as §1"}, "CTLA-4 Protein": {"target": "T2, CTLA-4 Protein (UniProt P16410 36-161, limits assumed)", "T2 sequence (looked up)": "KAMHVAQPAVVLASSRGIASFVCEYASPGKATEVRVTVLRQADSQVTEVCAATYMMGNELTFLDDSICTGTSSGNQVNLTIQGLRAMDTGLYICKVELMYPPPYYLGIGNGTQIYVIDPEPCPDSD", "assay": "ELISA, CTLA-4 Protein coated at 20 µg/ml, biotinylated sample, detection with streptavidin-HRP", "method": "Hib-PDC sample well and CD80-His well: Streptavidin-HRP was diluted at 1:2000, and added at 100 μl/well. Then the plate was incubated at 37° C. for 1 h±10 min;\nas §1"}, "TGF-β1 [3]": {"target": "T1, TGF-β1", "assay": "ELISA, TGF-β1 coated at 2 µg/ml, detection with anti-His-HRP", "text": "as §1"}, "VEGF": {"target": "VEGF (UniProt P15692-4 27-191, limits assumed)", "sequence (P15692 other isoform, or with tags, fused parts or gaps limits assumed)": "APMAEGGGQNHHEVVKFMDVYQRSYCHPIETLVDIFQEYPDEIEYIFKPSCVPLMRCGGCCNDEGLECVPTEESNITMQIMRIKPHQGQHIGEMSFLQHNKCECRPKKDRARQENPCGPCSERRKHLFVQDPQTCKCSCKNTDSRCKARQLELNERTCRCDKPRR", "assay": "ELISA, VEGF coated at 1 µg/ml, detection with anti-His-HRP", "text": "as §1"}}, "data": [{"binder": "Hib-PLT (bispecific antibody, also called fusion protein Hib-PLT; Hibody bispecific fusion protein Hib-PLT) heavy: not shown light: DIVLTQSPASLAVSPGQRATITCRASKSVHTSGYSYMHWYQQKPGQPPKLLIYLASNLESGVPARFSGSGSGTDFTLTINPVEANDTANYYCQHSGELPYTFGGGTKVEIKRTVAAPSVFIFPPSDEQLKSGTASVVCLLNNFYPREAKVQWKVDNALQSGNSQESVTEQDSKDSTYSLSSTLTLSKADYEKHKVYACEVTHQGLSSPVTKSFNRGEC", "values": [{"measurement": "EC50", "setting": "TGF-β1 [1]", "value": 0.164, "unit": "nM"}, {"measurement": "fold better binding activity than TGF-β receptor monomer", "setting": "TGF-β1 [2]", "value": "~70", "unit": "times"}]}, {"binder": "CD80-His (ligand, biotinylated sample in the assay (sites not given), The His tag is set after the fragment only by default; also called CD80 monomer; His-tagged CD80 fragment; not shown: His tag) VIHVTKEVKEVATLSCGHNVSVEELAQTRIYWQKEKKMVLTMMSGDMNIWPEYKNRTIFDITNNLSIVILALRPSDEGTYECVVLKYEKDAFKREHLAEVTLSVKADFPTPSISDFEIPTSNIRRIICSTSGGFPEPHLSWLENGEELNAINTTVSQDPETELYAVSSKLDFNMTTNHSFMCLIKYGHLRVNQTFNWN", "values": [{"measurement": "EC50", "setting": "CTLA-4 Protein", "value": 50.7, "unit": "nM"}]}, {"binder": "TGF-β-R-His (receptor, The His tag is set after the fragment only by default; also called TGF-β receptor monomer; His-tagged TGF-βRII extracellular region fragment; not shown: His tag) TIPPHVQKSVNNDMIVTDNNGAVKFPQLCKFCDVRFSTCDNQKSCMSNCSITSICEKPQEVCVAVWRKNDENITLETVCHDPKLPYHDFILEDAASPKCIMKEKKKPGETFFMCSCSSDECNDNIIFSEEYNTSNPD", "values": [{"measurement": "EC50", "setting": "TGF-β1 [3]", "value": 11.6, "unit": "nM"}]}, {"binder": "VEGF-R-His (receptor, The His tag is set after the fragment only by default; also called VEGF receptor monomer; not shown: His tag) GRPFVEMYSEIPEIIHMTEGRELVIPCRVTSPNITVTLKKFPLDTLIPDGKRIIWDSRKGFIISNATYKEIGLLTCEATVNGHLYKTNYLTHRQTNTIIDVVLSPSHGIELSVGEKLVLNCTARTELNVGIDFNWEYPSSKHQHKKLVNRDLKTQSGSEMKKFLSTLTIDGVTRSDQGLYTCAASSGLMTKKNSTFVRVHEP", "values": [{"measurement": "EC50", "setting": "VEGF", "value": 2150, "unit": "nM"}]}]}
